These results are taken from PMC4434323.

For data set [1], the target named is T1, K11D2.4 (K11D2.4) (Caenorhabditis elegans) (UniProt G5EBU1).
T1 sequence: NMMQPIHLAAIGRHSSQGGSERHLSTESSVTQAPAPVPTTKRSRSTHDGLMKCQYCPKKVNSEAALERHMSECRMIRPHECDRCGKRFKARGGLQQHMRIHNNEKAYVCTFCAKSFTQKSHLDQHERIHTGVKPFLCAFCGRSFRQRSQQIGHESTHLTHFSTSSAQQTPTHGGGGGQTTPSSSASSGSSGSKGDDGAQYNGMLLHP

For data set [2], the target named is T2, M03D4.4 (M03D4.4) (Caenorhabditis elegans) (UniProt Q21494).
T2 sequence: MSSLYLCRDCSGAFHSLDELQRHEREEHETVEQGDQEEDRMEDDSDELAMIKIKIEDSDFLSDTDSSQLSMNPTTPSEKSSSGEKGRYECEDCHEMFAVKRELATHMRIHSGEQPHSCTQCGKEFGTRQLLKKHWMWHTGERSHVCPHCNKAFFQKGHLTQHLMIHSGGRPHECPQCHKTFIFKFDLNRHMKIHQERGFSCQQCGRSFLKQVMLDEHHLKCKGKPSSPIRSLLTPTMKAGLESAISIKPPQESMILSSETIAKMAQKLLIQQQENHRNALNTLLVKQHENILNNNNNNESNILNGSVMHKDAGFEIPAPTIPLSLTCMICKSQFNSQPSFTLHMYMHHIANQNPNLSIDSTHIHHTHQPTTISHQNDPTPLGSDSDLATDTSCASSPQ

Data set [3] concerns the target T3, ztf-27 (T09F3.1) (Caenorhabditis elegans) (UniProt G5EDA0).
T3 sequence: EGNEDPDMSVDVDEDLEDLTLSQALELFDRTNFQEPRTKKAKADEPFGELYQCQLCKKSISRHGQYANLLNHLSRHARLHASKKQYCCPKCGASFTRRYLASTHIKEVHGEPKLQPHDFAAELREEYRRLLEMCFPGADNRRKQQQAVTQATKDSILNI

The target in data set [4] is atf-7 (C07G2.2) (Caenorhabditis elegans) (UniProt Q86MD3).
Data set [5] deals with T4, bed-3 (F25H8.6) (Caenorhabditis elegans) (UniProt Q19787).
T4 sequence: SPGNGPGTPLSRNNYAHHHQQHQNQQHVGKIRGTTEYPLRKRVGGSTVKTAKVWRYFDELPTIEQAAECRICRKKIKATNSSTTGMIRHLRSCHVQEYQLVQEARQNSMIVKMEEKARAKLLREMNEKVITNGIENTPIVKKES

In data set [6] the target is T5, F55C5.11 (F55C5.11) (Caenorhabditis elegans) (UniProt Q1ZXU0).
T5 sequence: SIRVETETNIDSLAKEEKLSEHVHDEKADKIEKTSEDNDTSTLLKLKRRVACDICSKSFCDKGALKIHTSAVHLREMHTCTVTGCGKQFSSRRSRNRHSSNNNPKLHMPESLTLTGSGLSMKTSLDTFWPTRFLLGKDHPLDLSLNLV

Chain of atf-7 (C07G2.2) (Caenorhabditis elegans) (Q86MD3 339-508): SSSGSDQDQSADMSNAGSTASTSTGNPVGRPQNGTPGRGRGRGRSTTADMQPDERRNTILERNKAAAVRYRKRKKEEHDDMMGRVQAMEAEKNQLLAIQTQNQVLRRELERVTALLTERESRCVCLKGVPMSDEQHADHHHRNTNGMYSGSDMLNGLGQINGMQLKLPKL

“AAAAAACA (double strand) [8-mer AAAAAACA]”: in data set [1], the binding signal (PBM E-score (-0.5 to 0.5)) was found to be 0.495.

Regarding “AAAAAAGA (double strand) [8-mer AAAAAAGA]”, the binding signal (PBM E-score (-0.5 to 0.5)) in data set [1] came out at 0.495.

On to “AAAAAAGT (double strand) [8-mer AAAAAAGT]”, for which the binding signal (PBM E-score (-0.5 to 0.5)) in data set [1] was 0.494.

In turn, “AATAAAAA (double strand) [8-mer AATAAAAA]” displayed a binding signal (PBM E-score (-0.5 to 0.5)) in data set [1] of 0.496.

Turning to “AATGCATG (double strand) [8-mer AATGCATG]”, the binding signal (PBM E-score (-0.5 to 0.5)) in data set [2] came to 0.494.

In data set [3], “AATGGTGT (double strand) [8-mer AATGGTGT]” showed a binding signal (PBM E-score (-0.5 to 0.5)) of 0.477.

On to “ACAAAAAA (double strand) [8-mer ACAAAAAA]”, for which the binding signal (PBM E-score (-0.5 to 0.5)) in data set [1] is 0.494.

In data set [3], “ACACCAAT (double strand) [8-mer ACACCAAT]” gave a binding signal (PBM E-score (-0.5 to 0.5)) of 0.478.

Regarding “ACACCATA (double strand) [8-mer ACACCATA]”, the binding signal (PBM E-score (-0.5 to 0.5)) in data set [3] was 0.479.

In data set [2], “ACATGCAT (double strand) [8-mer ACATGCAT]” returned a binding signal (PBM E-score (-0.5 to 0.5)) of 0.491.

In turn, “ACGCATGA (double strand) [8-mer ACGCATGA]” came in with a binding signal (PBM E-score (-0.5 to 0.5)) in data set [2] of 0.495.

As for “ACGTCACC (double strand) [8-mer ACGTCACC]”, the binding signal (PBM E-score (-0.5 to 0.5)) in data set [4] is 0.496.

In the case of “ACGTCACT (double strand) [8-mer ACGTCACT]”, the binding signal (PBM E-score (-0.5 to 0.5)) in data set [4] was 0.496.

In data set [5], “ACTCCCGA (double strand) [8-mer ACTCCCGA]” came in with a binding signal (PBM E-score (-0.5 to 0.5)) of 0.49.

Consider “ACTCTCGA (double strand) [8-mer ACTCTCGA]”, for which the binding signal (PBM E-score (-0.5 to 0.5)) in data set [5] was found to be 0.49.

On to “AGGTGACA (double strand) [8-mer AGGTGACA]”, for which, in data set [6], the binding signal (PBM E-score (-0.5 to 0.5)) stood at 0.486.

In turn, “AGTCTCGA (double strand) [8-mer AGTCTCGA]” showed a binding signal (PBM E-score (-0.5 to 0.5)) in data set [5] of 0.494.

In turn, “AGTGTCAC (double strand) [8-mer AGTGTCAC]” gave a binding signal (PBM E-score (-0.5 to 0.5)) in data set [6] of 0.487.

In data set [4], “ATACGTCA (double strand) [8-mer ATACGTCA]” returned a binding signal (PBM E-score (-0.5 to 0.5)) of 0.494.

In data set [2], “ATCATGCA (double strand) [8-mer ATCATGCA]” had a binding signal (PBM E-score (-0.5 to 0.5)) of 0.497.

“ATCTCGAG (double strand) [8-mer ATCTCGAG]” showed a binding signal (PBM E-score (-0.5 to 0.5)) in data set [5] of 0.497.

For the sequence “ATGCATGA (double strand) [8-mer ATGCATGA]”, in data set [2], the binding signal (PBM E-score (-0.5 to 0.5)) is 0.499.

As to “ATGCATGC (double strand) [8-mer ATGCATGC]”, the binding signal (PBM E-score (-0.5 to 0.5)) in data set [2] was found to be 0.491.

“ATGGTGCA (double strand) [8-mer ATGGTGCA]”: the binding signal (PBM E-score (-0.5 to 0.5)) in data set [3] came out at 0.487.

In turn, “ATGGTGTA (double strand) [8-mer ATGGTGTA]” had a binding signal (PBM E-score (-0.5 to 0.5)) in data set [3] of 0.485.

“ATGGTGTG (double strand) [8-mer ATGGTGTG]” gave a binding signal (PBM E-score (-0.5 to 0.5)) in data set [3] of 0.477.

For “ATGTGACA (double strand) [8-mer ATGTGACA]”, the binding signal (PBM E-score (-0.5 to 0.5)) in data set [6] turned out to be 0.489.

In the case of “CACGTCAC (double strand) [8-mer CACGTCAC]”, the binding signal (PBM E-score (-0.5 to 0.5)) in data set [4] was found to be 0.496.

As for “CATGCATG (double strand) [8-mer CATGCATG]”, the binding signal (PBM E-score (-0.5 to 0.5)) in data set [2] amounted to 0.498.

Consider “CCTCGAGA (double strand) [8-mer CCTCGAGA]”, for which, in data set [5], the binding signal (PBM E-score (-0.5 to 0.5)) worked out at 0.492.

For the sequence “CGAAAAAA (double strand) [8-mer CGAAAAAA]”, in data set [1], the binding signal (PBM E-score (-0.5 to 0.5)) worked out at 0.495.

For the sequence “CGCATGAA (double strand) [8-mer CGCATGAA]”, the binding signal (PBM E-score (-0.5 to 0.5)) in data set [2] is 0.491.

As to “CGGTGACA (double strand) [8-mer CGGTGACA]”, the binding signal (PBM E-score (-0.5 to 0.5)) in data set [6] was determined as 0.488.

For “CTCGAGAA (double strand) [8-mer CTCGAGAA]”, in data set [5], the binding signal (PBM E-score (-0.5 to 0.5)) was found to be 0.491.

In data set [5], “CTCGAGAC (double strand) [8-mer CTCGAGAC]” showed a binding signal (PBM E-score (-0.5 to 0.5)) of 0.497.

In data set [5], “CTCGAGAG (double strand) [8-mer CTCGAGAG]” came in with a binding signal (PBM E-score (-0.5 to 0.5)) of 0.493.

As to “CTGTCACC (double strand) [8-mer CTGTCACC]”, in data set [6], the binding signal (PBM E-score (-0.5 to 0.5)) was 0.487.

Take “GATCATGC (double strand) [8-mer GATCATGC]”: the binding signal (PBM E-score (-0.5 to 0.5)) in data set [2] worked out at 0.493.

As to “GATCCCGA (double strand) [8-mer GATCCCGA]”, the binding signal (PBM E-score (-0.5 to 0.5)) in data set [5] is 0.49.

Regarding “GATCTCGA (double strand) [8-mer GATCTCGA]”, in data set [5], the binding signal (PBM E-score (-0.5 to 0.5)) was found to be 0.493.

Regarding “GCATGGAA (double strand) [8-mer GCATGGAA]”, in data set [2], the binding signal (PBM E-score (-0.5 to 0.5)) came to 0.491.

“GCTCTCGA (double strand) [8-mer GCTCTCGA]” gave a binding signal (PBM E-score (-0.5 to 0.5)) in data set [5] of 0.491.

With “GGGTGACA (double strand) [8-mer GGGTGACA]”, in data set [6], the binding signal (PBM E-score (-0.5 to 0.5)) was found to be 0.494.

For “GGTCTCGA (double strand) [8-mer GGTCTCGA]”, the binding signal (PBM E-score (-0.5 to 0.5)) in data set [5] worked out at 0.491.

In data set [6], “GGTGACAA (double strand) [8-mer GGTGACAA]” yielded a binding signal (PBM E-score (-0.5 to 0.5)) of 0.487.

For the sequence “GGTGACAC (double strand) [8-mer GGTGACAC]”, the binding signal (PBM E-score (-0.5 to 0.5)) in data set [6] worked out at 0.496.

With “GGTGTCAC (double strand) [8-mer GGTGTCAC]”, in data set [6], the binding signal (PBM E-score (-0.5 to 0.5)) was found to be 0.486.

“GTCATGCA (double strand) [8-mer GTCATGCA]” registered a binding signal (PBM E-score (-0.5 to 0.5)) in data set [2] of 0.495.

For the sequence “GTGACAAA (double strand) [8-mer GTGACAAA]”, the binding signal (PBM E-score (-0.5 to 0.5)) in data set [6] amounted to 0.484.

“GTGCACCA (double strand) [8-mer GTGCACCA]” had a binding signal (PBM E-score (-0.5 to 0.5)) in data set [3] of 0.484.

In the case of “GTGCATGA (double strand) [8-mer GTGCATGA]”, the binding signal (PBM E-score (-0.5 to 0.5)) in data set [2] was 0.494.

Take “GTGTCACA (double strand) [8-mer GTGTCACA]”: the binding signal (PBM E-score (-0.5 to 0.5)) in data set [6] is 0.488.

“GTGTGACA (double strand) [8-mer GTGTGACA]” showed a binding signal (PBM E-score (-0.5 to 0.5)) in data set [6] of 0.486.

“TACACCAA (double strand) [8-mer TACACCAA]” displayed a binding signal (PBM E-score (-0.5 to 0.5)) in data set [3] of 0.483.

“TACACCCA (double strand) [8-mer TACACCCA]” gave a binding signal (PBM E-score (-0.5 to 0.5)) in data set [3] of 0.477.

“TACGCCAA (double strand) [8-mer TACGCCAA]” showed a binding signal (PBM E-score (-0.5 to 0.5)) in data set [3] of 0.48.

“TCATGCAA (double strand) [8-mer TCATGCAA]” had a binding signal (PBM E-score (-0.5 to 0.5)) in data set [2] of 0.493.

The sequence “TCCATGCA (double strand) [8-mer TCCATGCA]” yielded a binding signal (PBM E-score (-0.5 to 0.5)) in data set [2] of 0.491.

Regarding “TCCCGAGA (double strand) [8-mer TCCCGAGA]”, the binding signal (PBM E-score (-0.5 to 0.5)) in data set [5] is 0.493.

With “TCCCGGGA (double strand) [8-mer TCCCGGGA]”, in data set [5], the binding signal (PBM E-score (-0.5 to 0.5)) was determined as 0.491.

For “TCTCGAGA (double strand) [8-mer TCTCGAGA]”, the binding signal (PBM E-score (-0.5 to 0.5)) in data set [5] worked out at 0.499.

“TGCATGAA (double strand) [8-mer TGCATGAA]” displayed a binding signal (PBM E-score (-0.5 to 0.5)) in data set [2] of 0.495.

Regarding “TGGTGACA (double strand) [8-mer TGGTGACA]”, the binding signal (PBM E-score (-0.5 to 0.5)) in data set [6] came out at 0.487.

In the case of “TGTGACAA (double strand) [8-mer TGTGACAA]”, the binding signal (PBM E-score (-0.5 to 0.5)) in data set [6] stood at 0.485.
